Test results published in IntAct's records for PubMed 28712572.

Key:
gbrap_human GABARAP [1] = target: gbrap_human GABARAP (UniProt O95166)
gbrap_human GABARAP [2] = target: gbrap_human GABARAP (UniProt O95166); remark: listed apart in the source
gbrap_human GABARAP [3] = target: gbrap_human GABARAP (UniProt O95166); remark: listed apart in the source

gbrap_human GABARAP, sequence (O95166 whole entry): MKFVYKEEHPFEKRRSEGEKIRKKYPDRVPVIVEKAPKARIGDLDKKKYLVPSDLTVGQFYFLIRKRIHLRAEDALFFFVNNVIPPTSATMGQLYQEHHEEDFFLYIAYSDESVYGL

| effect of a mutation on the interaction (gbrap_human GABARAP [1]) | effect of a mutation on the interaction (gbrap_human GABARAP [2]) | effect of a mutation on the interaction (gbrap_human GABARAP [3]) | Substance |
| --- | --- | --- | --- |
| decreasing interaction strength | with no effect | – | Pericentriolar material 1 protein (Homo sapiens), Q15154 D1962A;F1963A;V1966A |
| – | – | disrupting interaction strength | Pericentriolar material 1 protein (Homo sapiens), Q15154 V1966M |
| – | – | disrupting interaction strength | Pericentriolar material 1 protein (Homo sapiens), Q15154 V1966N |
| – | – | disrupting interaction strength | Pericentriolar material 1 protein (Homo sapiens), Q15154 V1966P |
| – | – | disrupting interaction strength | Pericentriolar material 1 protein (Homo sapiens), Q15154 V1966Q |
| – | – | disrupting interaction strength | Pericentriolar material 1 protein (Homo sapiens), Q15154 V1966R |
| – | – | disrupting interaction strength | Pericentriolar material 1 protein (Homo sapiens), Q15154 V1966S |
| – | – | disrupting interaction strength | Pericentriolar material 1 protein (Homo sapiens), Q15154 V1966T |
| – | – | disrupting interaction strength | Pericentriolar material 1 protein (Homo sapiens), Q15154 V1966W |
| – | – | decreasing interaction strength | Pericentriolar material 1 protein (Homo sapiens), Q15154 V1966Y |
